Laboratory results: article PMC8809517, “Cofactor-independent RNA editing by a synthetic S-type PPR protein”
Changes are numbered by the printed parent chain.

Assays:
Test in all cases: high-throughput RNA pulldown from lysate on Ni-NTA beads; HRP: 50 mM Tris pH 8, 150 mM NaCl, 1 mM beta-mercaptoethanol, 50 ug/ml BSA, 3 ug/ml yeast RNA, 0.5% heparin; ITC and FP: Tris pH 8, 200 mM KCl, 5% glycerol; MST: 50 mM Tris pH 8, 200 mM NaCl, 1 mM DTT, BSA, heparin, 0.05% Tween 20
Settings in all cases: tags: N-terminal His-eGFP
[1] = molecular target: T1, GFP-9S library array, motif 4 ND N98G;D124G (synthetic construct, N98G;D124G)
T1 chain: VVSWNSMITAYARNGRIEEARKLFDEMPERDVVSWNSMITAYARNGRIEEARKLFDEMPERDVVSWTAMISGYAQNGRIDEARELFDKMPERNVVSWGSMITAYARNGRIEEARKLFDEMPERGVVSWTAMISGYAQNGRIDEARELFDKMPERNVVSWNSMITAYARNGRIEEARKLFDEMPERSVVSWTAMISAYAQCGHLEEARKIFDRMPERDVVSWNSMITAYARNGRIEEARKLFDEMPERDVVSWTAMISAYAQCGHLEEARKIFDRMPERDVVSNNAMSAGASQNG

[2] = molecular target: T2, GFP-9S library array, motif 4 ND N98I;D124K (synthetic construct, N98I;D124K)
T2 chain: T1 chain with G98I, G124K

[3] = molecular target: T3, GFP-9S library array, motif 4 ND N98E;D124Y (synthetic construct, N98E;D124Y)
T3 chain: T1 chain with G98E, G124Y

[4] = molecular target: T4, GFP-9S library array, motif 4 ND N98I;D124N (synthetic construct, N98I;D124N)
T4 chain: T1 chain with G98I, G124N

[5] = molecular target: T5, GFP-9S library array, motif 4 ND N98H;D124G (synthetic construct, N98H;D124G)
T5 chain: T1 chain with G98H

Binder AUUAAACGUGA (ssRNA) [IR-rpoA-A] has a Kd ([1]; label: 5' IRDye 800CW) of 49.9 nM, a Kd ([2]; label: 5' IRDye 800CW) of 197 nM and a Kd ([3]; label: 5' IRDye 800CW) of 450 nM. It also gave a Kd ([4]; label: 5' IRDye 800CW) of 150 nM and a Kd ([5]; label: 5' IRDye 800CW) of 61.3 nM.

Work on AUUAGACGUGA (ssRNA) [Cy5-rpoA-G] yielded a Kd ([1]; label: 5' Cy5) of 95.2 nM, a Kd ([2]; label: 5' Cy5) of 121 nM and a Kd ([3]; label: 5' Cy5) of 187 nM. For the same binder, the Kd ([4]; label: 5' Cy5) was 117 nM and the Kd ([5]; label: 5' Cy5) was 37.1 nM.

AUUACACGUGA (ssRNA) [Cy5-rpoA] gave a Kd ([1]; label: 5' Cy5) of 92 nM, a Kd ([2]; label: 5' Cy5) of 131 nM and a Kd ([3]; label: 5' Cy5) of 231 nM. It also gave a Kd ([4]; label: 5' Cy5) of 96.4 nM and a Kd ([5]; label: 5' Cy5) of 101 nM.

Work on AUUAUACGUGA (ssRNA) [IR-rpoA-U] yielded a Kd ([1]; label: 5' IRDye 800CW) of 95.3 nM, a Kd ([2]; label: 5' IRDye 800CW) of 183 nM and a Kd ([3]; label: 5' IRDye 800CW) of 480 nM. The Kd ([4]; label: 5' IRDye 800CW) was 18.2 nM and the Kd ([5]; label: 5' IRDye 800CW) was 38.7 nM.
